{
  "source": "the supplement of paper PMC9112550",
  "about": "“Optimization of the antimicrobial peptide Bac7 by deep mutational scanning” (BMC Biology, 2022);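 note: peptides expressed intracellularly from a pBAD plasmid library in pooled LB shake-flask culture, induced with 0.3% L-arabinose, DNA abundance read by NGS, three biological replicates, DESeq2 with apeglm shrinkage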",
  "data": [
    {"system": "Escherichia coli TOP10", "experiment": "shrunken log2 fold change of peptide-encoding DNA abundance (4.5 h post-induction vs induction); higher = less antimicrobial activity (less host growth inhibition)", "conditions": "time post-induction: 4.5 h; library: site-saturation at positions 5, 18, 19, 20", "values": [
      {"sequence": "RRIRGRPPRLPRPRPRPMDPPRP", "shrunken log2 fold change": 0.00995},
      {"sequence": "RRIRGRPPRLPRPRPRPMFIPRP", "shrunken log2 fold change": 0.0775},
      {"sequence": "RRIRGRPPRLPRPRPRPMGIPRP", "shrunken log2 fold change": 0.0179},
      {"sequence": "RRIRGRPPRLPRPRPRPMHIPRP", "shrunken log2 fold change": 1.77},
      {"sequence": "RRIRGRPPRLPRPRPRPMINPRP", "shrunken log2 fold change": 0.574},
      {"sequence": "RRIRGRPPRLPRPRPRPMKEPRP", "shrunken log2 fold change": 0.31},
      {"sequence": "RRIRGRPPRLPRPRPRPMLDPRP", "shrunken log2 fold change": 0.485},
      {"sequence": "RRIRGRPPRLPRPRPRPMLNPRP", "shrunken log2 fold change": 0.477},
      {"sequence": "RRIRGRPPRLPRPRPRPMLYPRP", "shrunken log2 fold change": 0.322},
      {"sequence": "RRIRGRPPRLPRPRPRPMPFPRP", "shrunken log2 fold change": 0.118},
      {"sequence": "RRIRGRPPRLPRPRPRPMPLPRP", "shrunken log2 fold change": 0.606},
      {"sequence": "RRIRGRPPRLPRPRPRPMQPPRP", "shrunken log2 fold change": 1.77},
      {"sequence": "RRIRGRPPRLPRPRPRPMRCPRP", "shrunken log2 fold change": 0.581},
      {"sequence": "RRIRGRPPRLPRPRPRPMSDPRP", "shrunken log2 fold change": 0.34},
      {"sequence": "RRIRGRPPRLPRPRPRPMSRPRP", "shrunken log2 fold change": 0.00829},
      {"sequence": "RRIRGRPPRLPRPRPRPMVFPRP", "shrunken log2 fold change": 0.78},
      {"sequence": "RRIRGRPPRLPRPRPRPMVIPRP", "shrunken log2 fold change": 0.329},
      {"sequence": "RRIRGRPPRLPRPRPRPMVRPRP", "shrunken log2 fold change": 0.03},
      {"sequence": "RRIRGRPPRLPRPRPRPMWGPRP", "shrunken log2 fold change": -0.0435},
      {"sequence": "RRIRGRPPRLPRPRPRPMYCPRP", "shrunken log2 fold change": 0.0756},
      {"sequence": "RRIRGRPPRLPRPRPRPMYNPRP", "shrunken log2 fold change": -0.104},
      {"sequence": "RRIRGRPPRLPRPRPRPMYRPRP", "shrunken log2 fold change": 0.115},
      {"sequence": "RRIRGRPPRLPRPRPRPNAFPRP", "shrunken log2 fold change": 0.665},
      {"sequence": "RRIRGRPPRLPRPRPRPNAVPRP", "shrunken log2 fold change": 0.924},
      {"sequence": "RRIRGRPPRLPRPRPRPNCRPRP", "shrunken log2 fold change": 0.0979},
      {"sequence": "RRIRGRPPRLPRPRPRPNCWPRP", "shrunken log2 fold change": 0.303},
      {"sequence": "RRIRGRPPRLPRPRPRPNDHPRP", "shrunken log2 fold change": 0.143},
      {"sequence": "RRIRGRPPRLPRPRPRPNDNPRP", "shrunken log2 fold change": 0.19},
      {"sequence": "RRIRGRPPRLPRPRPRPNHNPRP", "shrunken log2 fold change": -0.409},
      {"sequence": "RRIRGRPPRLPRPRPRPNHRPRP", "shrunken log2 fold change": 0.00454},
      {"sequence": "RRIRGRPPRLPRPRPRPNKAPRP", "shrunken log2 fold change": 0.454},
      {"sequence": "RRIRGRPPRLPRPRPRPNKHPRP", "shrunken log2 fold change": 0.124},
      {"sequence": "RRIRGRPPRLPRPRPRPNKKPRP", "shrunken log2 fold change": 0.0152},
      {"sequence": "RRIRGRPPRLPRPRPRPNMEPRP", "shrunken log2 fold change": 0.22},
      {"sequence": "RRIRGRPPRLPRPRPRPNMSPRP", "shrunken log2 fold change": 0.161},
      {"sequence": "RRIRGRPPRLPRPRPRPNNHPRP", "shrunken log2 fold change": -0.15},
      {"sequence": "RRIRGRPPRLPRPRPRPNNYPRP", "shrunken log2 fold change": 0.0781},
      {"sequence": "RRIRGRPPRLPRPRPRPNPAPRP", "shrunken log2 fold change": 0.231},
      {"sequence": "RRIRGRPPRLPRPRPRPNRTPRP", "shrunken log2 fold change": -0.0769},
      {"sequence": "RRIRGRPPRLPRPRPRPNSAPRP", "shrunken log2 fold change": 0.749},
      {"sequence": "RRIRGRPPRLPRPRPRPNSDPRP", "shrunken log2 fold change": -0.0204},
      {"sequence": "RRIRGRPPRLPRPRPRPNSHPRP", "shrunken log2 fold change": 0.285},
      {"sequence": "RRIRGRPPRLPRPRPRPNSQPRP", "shrunken log2 fold change": 0.271},
      {"sequence": "RRIRGRPPRLPRPRPRPNTAPRP", "shrunken log2 fold change": 0.543},
      {"sequence": "RRIRGRPPRLPRPRPRPNTRPRP", "shrunken log2 fold change": 0.528},
      {"sequence": "RRIRGRPPRLPRPRPRPNTVPRP", "shrunken log2 fold change": -0.0703},
      {"sequence": "RRIRGRPPRLPRPRPRPNVEPRP", "shrunken log2 fold change": 0.183},
      {"sequence": "RRIRGRPPRLPRPRPRPNVMPRP", "shrunken log2 fold change": 0.114},
      {"sequence": "RRIRGRPPRLPRPRPRPNWWPRP", "shrunken log2 fold change": 3.32},
      {"sequence": "RRIRGRPPRLPRPRPRPNYHPRP", "shrunken log2 fold change": -0.179},
      {"sequence": "RRIRGRPPRLPRPRPRPNYIPRP", "shrunken log2 fold change": -0.099},
      {"sequence": "RRIRGRPPRLPRPRPRPPANPRP", "shrunken log2 fold change": 1.12},
      {"sequence": "RRIRGRPPRLPRPRPRPPAYPRP", "shrunken log2 fold change": 0.532},
      {"sequence": "RRIRGRPPRLPRPRPRPPCDPRP", "shrunken log2 fold change": 0.734},
      {"sequence": "RRIRGRPPRLPRPRPRPPCHPRP", "shrunken log2 fold change": 0.429},
      {"sequence": "RRIRGRPPRLPRPRPRPPDTPRP", "shrunken log2 fold change": 1},
      {"sequence": "RRIRGRPPRLPRPRPRPPGVPRP", "shrunken log2 fold change": 0.931},
      {"sequence": "RRIRGRPPRLPRPRPRPPHCPRP", "shrunken log2 fold change": 0.902},
      {"sequence": "RRIRGRPPRLPRPRPRPPHTPRP", "shrunken log2 fold change": 0.985},
      {"sequence": "RRIRGRPPRLPRPRPRPPIWPRP", "shrunken log2 fold change": 0.67},
      {"sequence": "RRIRGRPPRLPRPRPRPPLEPRP", "shrunken log2 fold change": 1.2},
      {"sequence": "RRIRGRPPRLPRPRPRPPLYPRP", "shrunken log2 fold change": 0.459},
      {"sequence": "RRIRGRPPRLPRPRPRPPMWPRP", "shrunken log2 fold change": 1.1},
      {"sequence": "RRIRGRPPRLPRPRPRPPNIPRP", "shrunken log2 fold change": 0.083},
      {"sequence": "RRIRGRPPRLPRPRPRPPNPPRP", "shrunken log2 fold change": 0.74},
      {"sequence": "RRIRGRPPRLPRPRPRPPPHPRP", "shrunken log2 fold change": 1.26},
      {"sequence": "RRIRGRPPRLPRPRPRPPPMPRP", "shrunken log2 fold change": 1.19},
      {"sequence": "RRIRGRPPRLPRPRPRPPPSPRP", "shrunken log2 fold change": 1.22},
      {"sequence": "RRIRGRPPRLPRPRPRPPPVPRP", "shrunken log2 fold change": 1.25},
      {"sequence": "RRIRGRPPRLPRPRPRPPQAPRP", "shrunken log2 fold change": 1.58},
      {"sequence": "RRIRGRPPRLPRPRPRPPRCPRP", "shrunken log2 fold change": 0.951},
      {"sequence": "RRIRGRPPRLPRPRPRPPRMPRP", "shrunken log2 fold change": 0.608},
      {"sequence": "RRIRGRPPRLPRPRPRPPSKPRP", "shrunken log2 fold change": 0.58},
      {"sequence": "RRIRGRPPRLPRPRPRPPSMPRP", "shrunken log2 fold change": 0.593},
      {"sequence": "RRIRGRPPRLPRPRPRPPSQPRP", "shrunken log2 fold change": 0.882}
    ]}
  ]
}
